Reference: a protein production outcome set (Wang et al. 2014)

Assay: label from the status in PepcDB records

Sequence	protein production
MEPCLHPTLVDETSLVLYLDLARETGYRYVDVPFHWLEAEAERHGDAAVEAMFQRRGLVLANLGLPLNLYDSEPVFLRELSLLPDRARLCARLGARSVTAFLWPSMDEEPVRYISQLARRIRQVAVELLPLGMRVGLEYVGPHHLRHRRYPFVQSLADLKTFWEAIGAPNVGALVDSYHWYTAGEHEDDLAQLPPEKVVYVHINDTRDAPEDAHDGKRLLPGDGRIPLVPFLRGLYLAGYRGPVAAEVLHETPLDGTGESRARLVRERLEKLIALAKGEN	not failed
MEPHAESAAAGQAAPPEKRRASWFTRMGRVVRFAGQRADEQKLLQVASSLTFTTVLAIVPMLAVVLSLFTAFPVFQEFRVALEDFLANSLMPPSVSDNIMDYLNQFARQATRLTAIGGAFLIVTSLLLIMTIDKTFNDIWQVTRQRPLPQRALVYWAVITLGPVVAGASLWATSFVARESLGLVRDVPEAVSVAISFIPLVLTGLGFAALFVVVPNRRVYWKDALVGGFGTAIVLELMKAGFAYYLTRFPAYTVIYGAFATLPIFLLWIYLSWLAVLFGATVAASAPLIRLGRWEINRHAGAPFIDALGVLRVLHAAQGSRPAGRSANALAKRLRLHHDELNAVLEALEDMELVARTAEQRWVLTCDPRTTTLEPVFDRFLLDRGQPRLRDEPEIAAVAAGVLGQGPDPTLADLAGVAQNTDIGPAAAVLQLETGKK	failed
MEPSCTQNGMKPKLKISDLSRSLGPGIMMAAAAVGGSHLVASTKAGAIYGWEMLLLILAVNLLKYPFFRAGVQYTLGTGDSIIQGYHKLGRGYLWVFLVLSAISAVVNTAALLLFSASLLGYFLPFDLSLNVLSSIVLITCITILFAGHFKALDKLSKLIMATLTIATTIALGVAFSNGAVAPTDYQGPSVWSIASIGFLVITMGWMPAPIEISSITSMWLKRQCQTQKVTPQSALFDFNVGYIGTAILAVVFLSLGALVLYGSGIEFKASGIGFSHQLVGIYAATIGEWSRYLIAVIAFFCIFGSTITVIDGYSRAVSEAQLLLQRKPLNQPKHYNSWVMIVSVLAITIVTLFISSLMSMLDFAMIMAFITTPIFAALNYILVTKTELPDELRMGAKLKALSIVGLIYLFGFLAIFVWWKWLM	failed
MEQDASAKNPDIETENKGAISEEEALIQREYSLLIQDYLNSNHRRKVEKIDKAFHLAKDAHAGAKRRSGEPYILHPIAVARIVCQEIGLGSTSICCALLHDVVEDTEYTVEDMRDMFGDKVAQIVDGLTKISGEVFSNSSAQAENFRKLILTMNDDIRVILIKIADRLHNMRTLDSMLPAKQMKIAGETQYVYAPLAHRLGLFAIKSELEDLSFKYEHPQEYEAIKEKIRITEQHRLEMFEHFAAPLKQRFAGMDMSYEMKARVKSVYSIWKKMEKKGVPFEEIYDLFAVRIIFESSPTIPDKNRCWEIYSAITDIYRNRPDRIRDWVSNPKSNGYQALHLTVMGPDGEWVEVQIRSRRMDDIAEKGFAAHWKYKGDNVEEDSELEKWLSTIQEILENPNPNALDFLDTIKLNLFSNEVMVFTPKGEIKRLPQGATALDFAYSLHSDLGDHCIGAKVNHKLVPLSYVLNSGDQVEVLSSKSQQPTEEWLRYVTTARAKSKVDTFLRRKRRELINRGEERVVSVIRTSESMVSAELLDRIAAYFGFLNRETFFYAVGTGTVSLPESFKKLLQGEHSGNFLMRAIRSALKAGKSNKTSSPSGKPAEKEDKKAYNTKKTYILQEDEFSRNYQIAECCKPIPGDDAFGFINDDNTVVVHKRSCPIAMRLKSSFGNRILSTEWSLHSRTSFEAKLALKGIDSTGILTAVTQVISEDFNVGIKHIQLTAKDGIFEGQIHLLVHSSDDLLKICHQLRQNKYIQSVGRIS	failed
MEQDTQHVKPLQTKTDIHAVLASNGRIIYISANSKLHLGYLQGEMIGSFLKTFLHEEDQFLVESYFYNEHHLMPCTFRFIKKDHTIVWVEAAVEIVTTRAERTEREIILKMKVLEEETGH	failed
MEQHIGELIAHYGYFGIVIALAGGIVGLPIPDEFLLTFVGYNVSKGVMSGTAAFLSGLAGAMLGITLSYILGLKLGLPVLKKYGPKIRIKEHHIEKTHILFEKYGPFLLMIGYFIPGVRHLTAYFAGVSNLTLWRFCLYAYGGALIWISVFIGLGWKLGEKWRFVEYSLHHYGIWILLISAVVTCFVWLYIKKKKNR	failed
MEQIITDFISKWGYTAIFILILLENVLPVVPSEIILTFAGLLSVKSHLSIWTLLIIATIASFIGLLILYYICRLISEEKLYRFVDRHGKWMKLKSKDLKRANDWFKKYGAWAVFLCRFVPVLRVLITIPAGINRMNVIQFTTLSLIGTTIWNFALILLGRLLSDSFDALMNGIHTYSRIMYVIIIIAVIYFVIRYLMKRRRSVK	failed
MEQLQIGDIKVTWLKGGNTHLDGGAMFGVVPKVLWSRKYKHNDTNHIYLRTDPLLLQTKDGNMLIDSGIGNGKLNEKMKRNQGVTEESSVYESLEKLGLKPEDIDYVLMTHLHFDHASGLTKWEDDHLVPSFPNAKVYVSETEWNEMRNPNIRSRNTYWKENWEPIVDQVVTFQQEIEITDEIKMARTGGHSDGHAVIALESQGETMLHLADLLPTHAHQNVLWVMAYDDYPMTSIENKQKWMKYGAEKEAWFTFYHDAYYRAVKWNEEGHIVEKIERKTSIEA	failed
MEQQRSFQTETGGHLYLVPTPIGNLDDMTFRAVKTLTAVDLIAAEDTRNTQKLLNHFEITTKQISFHEHNTQERIPQLIAKLKQGMQIAQVSDAGMPSISDPGHELVNACIDAHIPVVPLPGANAGLTALIASGLAPQPFYFYGFLDRKPKDRKAEIAGLAQRPETLIFYEAPHRLKKTLQNLAAGFGDERPAVLCRELTKRYEEFLRGSLAELANWAATDTVRGEFVVLVGGNPAPTTAATTAVDLSEPIDVQVDRLIAAGEKPNDAIKEVAKLRGAKKQEIYRQYHHLDEE	not failed
MERAMEQLNRLTRSLRRARTVELPEDNETAVYTLMPMVMADQHRSVSELLSNSKFDVNYAFGRVKRSLLHIAANCGSVECLVLLLKKGANPNYQDISGCTPLHLAARNGQKKCMSKLLEYSADVNICNNEGLTAIHWLAVNGRTELLHDLVQHVTDVDVEDAMGQTALHVACQNGHKTTVQCLLDSGADINRPNVAGATPLYFACSHGQRDTAQILLLRGAKYLPDKNGVTPLDLCVQGGYGQTCEVLIQYHPRLFQTIVQMTQNEDLRENMLRQVLQHLSQQSESQYLKILTGLAEVATTNGHKLLSLSSSYEAQMKSLLRIVRIFCHVFRIGPSSPSNGMDMGYNGNKTPRSQVFKPLELLWHSLDEWLVLIATELMKNKEDSADITSILLKQKGQDQEASCISAFEPPGPGSYERLSTGPGESKPDVLAGKQEASADCQDVISVTANRLSAVIQAFYMCCSCQMPPGMTSPRFIEFVCKHDEVLKCFVNRNPKIIFDHFHFLLECPELMSRFMHIIKAQPFKDRCEWFYEHLHSGQPDSDMVHRPVSENDILLVHRDSIFRSSCEIVSKANCAKLKQGIAVRFHGEEGMGQGVVREWFDILSNEIVNPDYALFTQSYCYVFISIGTTFQPNSNSYVNPDHLNYFRFAGQILGLALNHRQLVNIYFTRSFYKHILGIPVNYQDVASIDPEYAKNLQWILDNDISDLGLELTFSVETDVFGAMEEVPLKPGGGSILVTQNNKAEYVQLVTELRMTRAIQPQINAFLQGFHMFIPPSLIQLFDEYELELLLSGMPEIDVNDWIKNTEYTSGYEREDPVIQWFWEVVEDMTQEERVLLLQFVTGSSRVPHGGFANIMGGSGLQNFTIAAVPYTPNLLPTSSTCINMLKLPEYPSKEILKDRLLVALHCGSYGYTMA	failed
MERDLAGRIVALVSPTGLRTSYSYDACGRMVDVTDPAGRVTRYSYTSDFQVATVTYPTGETARYEYDAMGRVVLSHVPGAGVSQYRYDPCGRLVFSCDLVYGQRHFSYDLAGQLVAATNPAGGVSRYGYDRCGRLVTRTDPGGGLTTYQYNECGQMIAATDPLGRVTEYTWDKSGTLAAITRPDGTVVSRRLGPKGVEEYIDDQLVSRILITPTTRTVTIDDYTDPAFPWRHLLGYDPRGLLLTHSVAPVPGDESIVDEGPLTSSEQWWYDAEGRRVRHLTLTGDSIDYAYTNTGVLGSIRHSRLGEVSLEWDAVGRLAKLGSPLDQQQWGYTDGFVTSHTSSRGSTTISRDEMGRVLRVSAPYGDFRYGYDDSGSLTSADGLDGSSRRWVYDTAGRLVTTTCQDAGTSQTCHYDYDLAGELVSTVTQLGPGDSTVETHYRYDPCGRRIEAASSAGMREEFRWDSRGWLAGVMTFRAGRSHEFATHVDAFGCLTDVSGPAGRTPIAWDLATGEPQLVQVGGIPALPLPDGSVLTPVSADSDQDEPWRRPATDPLDPYTLIQEHLTAGISMTGGHLGVAGLAWMGARVYDSTTASFLTIDPLAAPPGSLWEAASYGYAATNPLALADPLGLRPVTDAQMRQFASTIDTRNLWDRHIRNVFSWETLGGVALATAGGLLMCFGAEVPGAMLIGAGGDMVFQQVVRGHVDYGEVALSGALAPTGGSGLSEIAGLGTRTLLTRGIEAGTTQGYVMGNYHWVTSPGPHNAETYLEQVGGETLSGAAFGGITATIGGKTYDALPDSIPTGHFGPHNTILRVGKQPETFIRKYQRNGKLDFGQATSFRGATFKSKIAIKPITTYRSWSDPDYEVGGYVSRTRPAGPLQTQLDLALAPQWGNKANHISEYEIPQFAPFYEGAAGVQPVKAIEDSDTLGQLPGGGNQILITDKQVLDRWKSKK	failed
MERDQHIRIIYKLIIVLLVLLIIYVVVQLADLWVPFVYVLKRLLIPLGLAAIITYLFHPLIEAMHRRGMGRGLAVLLVFGAMIALLVCFAVVGAPYVLQQIEELTTSFPTVMKDVEGTVSKMEWQIQQLPHPFHNQAENWLNHLGKKAGNLLGQMERVIVVLIQSMVLLITVPFLVLYFLKDFDLIERAAWYVTPRKWRPSLKRYVRDVDRSFGRYIRGQLLVALSVAVVSMMALWLIGVPYPILLGGFIGATNIIPYFGAFIGAVPALVFAYFESWPVLLATAIALFLLQQLEGNVLSPLIVGHSLHLHPITIILALLVGVEVGGVIGLILAVPILAVLKVTFIHLRLHVSKVDREV	failed
MERFNMKLTRKKFTGNLLRSLAVLLLFSLVVCTAAGEELYFEPQEAVFSDTGSVASLSLYLDQAPSGLAGYKLNLSISDPSVAQITGVEFPSWSGINNSSSLPADLVQIKAVDLEEKINAGDLDVFLGTVTVESLASGEANLTVSVDRLDDDSENTISVTVREAKLTSGTTSENPVVSILPAESTLSSGASQVFEIRADKFTEGISGYDFNLTLENPAVGKFTNVEYPSWVGLSENSSMPNTSIKVKAVDTNDVVKAGDENVLLANVTFVAETPGESEISLTFNRLDDDSGSNINAVAEASSVKVQGSSTLPVAKFTATPTSGDSPLTVQFTDESTGSPTAWTWDFGDGATATEQSPSHTYTSAGNYTVNLTVTNDGGSDSEVKTDYITVSESSTPTEPEPVAAFTADVTNGTVPLTVNFTDQSTEAPTSWAWDFDNDGTVDSTEQNPSYTYTSAGTYTVNLTVANAEGSDSEVKIDYITVSESSTPTEPEPVAAFIADVTNGTVPLTVNFTDQSTGSPTSWLWDFGDNTSATEQNPSHTYNSAGNYTVNLTVISESGNSSEVKADYITVSESSTPTEPEPVAAFTADVTNGTVPLTVNFTDQSTGMPTSWAWDFDNDGNMDSTEQNPSYTYTAEGNYTVNLTVSSEVGSDSEVKVEYITVTDSSTTPEARPDLIVSSIIPPSSITANTSCNIGATISNTGESDAGTFNATLSVNGAVVDTHAVSGIVSGSSATVNFSWKPVAAGYYSVKVSADAGNVIAESDETNNELADCIKVEEASSGSQSQNGSSSVSLNVTIVPVVCFEVSPSALKFGELSAGQTSEPQLLTLKNCGVSGIKVTAEVSDSSAEDNLFGLGLLLDSQIWSDYCNVIGSNSQENATAALHVPSDYTGTGNKKGTITFWAEVAE	failed
MERIALPRRTLGARRREVPVTPDTLLPLLAVLPPLAYGLLALFCARAWFGRQRPGPGHTPPVTILKPVKGMDAESFENFASFCRQEYGGPWQMLFACASADDPVIPVIRRLMAEFPDRDIDLVVDGTIHGPNYKVSNLINAFPRARHDILIVCDSDIRVTSDYLGEVTAPFADPAVGLVTSLYRSPGVRGAATALEAMGFTVEMVPNVMVAQRLEGLSFALGASMAVRRTALESIGGFPALTHYLADDYQLGNKIHRAGWRLELSDCFVESVMHRENLTTVLSRQLRWCRTMRASRPGGYLGSGITQPVPLACLALLVSGCSAAGWGAVILLYLTRALVAVTFSRRYLRDGIFPRWLWLLPLRDILAFATWALSFAGNRVRWRGNLFRLLPGGKIVEIG	failed
